Sequences and labels used below:
B1: CIgG4E1A1(G4S)2 (Fc fusion)
chain 1: GPPCPPCPAPEFLGGPSVFLFPPKPKDTLMISRTPEVTCVVVDVSQEDPEVQFNWYVDGVEVHNAKTKPREEQFNSTYRVVSVLTVLHQDWLNGKEYKCKVSNKGLPSSIEKTISKAKGQPREPQVYTLPPCQEEMTKNQVSLWCLVKGFYPSDIAVEWESNGQPENNYKTTPPVLDSDGSFFLYSRLTVDKSRWQEGNVFSCSVMHEALHNHYTQKSLSLSLGKGGGGSGGGGSDVQLQESGGGLVQAGGSLRLSCLASGRTFTTTSGYNMGWFRQAPGKEREFVAGIKWVSGSNRAYAESVKGRFTISRDNAKNTVYLQMNSLKPEDTAVYYCAAATGQSYVPIREYEYVYWGQGTQVTVS
chain 2: GPPCPPCPAPEFLGGPSVFLFPPKPKDTLMISRTPEVTCVVVDVSQEDPEVQFNWYVDGVEVHNAKTKPREEQFNSTYRVVSVLTVLHQDWLNGKEYKCKVSNKGLPSSIEKTISKAKGQPREPQVCTLPPSQEEMTKNQVSLSCAVKGFYPSDIAVEWESNGQPENNYKTTPPVLDSDGSFFLVSRLTVDKSRWQEGNVFSCSVMHEALHNHYTQKSLSLSLGKGGGGSGGGGSEVQLLESGGGLVQPGGSLRLSCAASGFTFGNYDMAWVRQAPGKRPEWVSSIDTGGDITHYADSVKGRFTISRDNAKNTLYLQMNSLRPEDTAVYWCATDEEYALGPNEFDYYGQGTLVTVSS
B2: CIgG4E1A1(RS) (Fc fusion)
chain 1: GPPCPPCPAPEFLGGPSVFLFPPKPKDTLMISRTPEVTCVVVDVSQEDPEVQFNWYVDGVEVHNAKTKPREEQFNSTYRVVSVLTVLHQDWLNGKEYKCKVSNKGLPSSIEKTISKAKGQPREPQVYTLPPCQEEMTKNQVSLWCLVKGFYPSDIAVEWESNGQPENNYKTTPPVLDSDGSFFLYSRLTVDKSRWQEGNVFSCSVMHEALHNHYTQKSLSLSLGKRSDVQLQESGGGLVQAGGSLRLSCLASGRTFTTTSGYNMGWFRQAPGKEREFVAGIKWVSGSNRAYAESVKGRFTISRDNAKNTVYLQMNSLKPEDTAVYYCAAATGQSYVPIREYEYVYWGQGTQVTVS
chain 2: GPPCPPCPAPEFLGGPSVFLFPPKPKDTLMISRTPEVTCVVVDVSQEDPEVQFNWYVDGVEVHNAKTKPREEQFNSTYRVVSVLTVLHQDWLNGKEYKCKVSNKGLPSSIEKTISKAKGQPREPQVCTLPPSQEEMTKNQVSLSCAVKGFYPSDIAVEWESNGQPENNYKTTPPVLDSDGSFFLVSRLTVDKSRWQEGNVFSCSVMHEALHNHYTQKSLSLSLGKRSEVQLLESGGGLVQPGGSLRLSCAASGFTFGNYDMAWVRQAPGKRPEWVSSIDTGGDITHYADSVKGRFTISRDNAKNTLYLQMNSLRPEDTAVYWCATDEEYALGPNEFDYYGQGTLVTVSS
B3: CIgG4E2A1(RS) (Fc fusion)
chain 1: GPPCPPCPAPEFLGGPSVFLFPPKPKDTLMISRTPEVTCVVVDVSQEDPEVQFNWYVDGVEVHNAKTKPREEQFNSTYRVVSVLTVLHQDWLNGKEYKCKVSNKGLPSSIEKTISKAKGQPREPQVYTLPPCQEEMTKNQVSLWCLVKGFYPSDIAVEWESNGQPENNYKTTPPVLDSDGSFFLYSRLTVDKSRWQEGNVFSCSVMHEALHNHYTQKSLSLSLGKRSDVQLQESGGGLVQAGGSLRLSCAASGRTISRYAVGWFRRPPAKEREFIGINWSGGSTTYADSAEGRFIISRDNAKNTVYLQMNSLKPEDTAVYYCAVPSVLVQGGISNPSQYDYWGQGTQVTVS
chain 2: GPPCPPCPAPEFLGGPSVFLFPPKPKDTLMISRTPEVTCVVVDVSQEDPEVQFNWYVDGVEVHNAKTKPREEQFNSTYRVVSVLTVLHQDWLNGKEYKCKVSNKGLPSSIEKTISKAKGQPREPQVCTLPPSQEEMTKNQVSLSCAVKGFYPSDIAVEWESNGQPENNYKTTPPVLDSDGSFFLVSRLTVDKSRWQEGNVFSCSVMHEALHNHYTQKSLSLSLGKRSEVQLLESGGGLVQPGGSLRLSCAASGFTFGNYDMAWVRQAPGKRPEWVSSIDTGGDITHYADSVKGRFTISRDNAKNTLYLQMNSLRPEDTAVYWCATDEEYALGPNEFDYYGQGTLVTVSS
B4: NIgG4E1A1(G4S)2 (Fc fusion)
chain 1: DVQLQESGGGLVQAGGSLRLSCLASGRTFTTTSGYNMGWFRQAPGKEREFVAGIKWVSGSNRAYAESVKGRFTISRDNAKNTVYLQMNSLKPEDTAVYYCAAATGQSYVPIREYEYVYWGQGTQVTVSGGGGSGGGGSGPPCPPCPAPEFLGGPSVFLFPPKPKDTLMISRTPEVTCVVVDVSQEDPEVQFNWYVDGVEVHNAKTKPREEQFNSTYRVVSVLTVLHQDWLNGKEYKCKVSNKGLPSSIEKTISKAKGQPREPQVYTLPPCQEEMTKNQVSLWCLVKGFYPSDIAVEWESNGQPENNYKTTPPVLDSDGSFFLYSRLTVDKSRWQEGNVFSCSVMHEALHNHYTQKSLSLSLGK
chain 2: EVQLLESGGGLVQPGGSLRLSCAASGFTFGNYDMAWVRQAPGKRPEWVSSIDTGGDITHYADSVKGRFTISRDNAKNTLYLQMNSLRPEDTAVYWCATDEEYALGPNEFDYYGQGTLVTVSSGGGGSGGGGSGPPCPPCPAPEFLGGPSVFLFPPKPKDTLMISRTPEVTCVVVDVSQEDPEVQFNWYVDGVEVHNAKTKPREEQFNSTYRVVSVLTVLHQDWLNGKEYKCKVSNKGLPSSIEKTISKAKGQPREPQVCTLPPSQEEMTKNQVSLSCAVKGFYPSDIAVEWESNGQPENNYKTTPPVLDSDGSFFLVSRLTVDKSRWQEGNVFSCSVMHEALHNHYTQKSLSLSLGK
B5: NIgG4E1A1(G4S)3 (Fc fusion)
chain 1: DVQLQESGGGLVQAGGSLRLSCLASGRTFTTTSGYNMGWFRQAPGKEREFVAGIKWVSGSNRAYAESVKGRFTISRDNAKNTVYLQMNSLKPEDTAVYYCAAATGQSYVPIREYEYVYWGQGTQVTVSGGGGSGGGGSGGGGSGPPCPPCPAPEFLGGPSVFLFPPKPKDTLMISRTPEVTCVVVDVSQEDPEVQFNWYVDGVEVHNAKTKPREEQFNSTYRVVSVLTVLHQDWLNGKEYKCKVSNKGLPSSIEKTISKAKGQPREPQVYTLPPCQEEMTKNQVSLWCLVKGFYPSDIAVEWESNGQPENNYKTTPPVLDSDGSFFLYSRLTVDKSRWQEGNVFSCSVMHEALHNHYTQKSLSLSLGK
chain 2: EVQLLESGGGLVQPGGSLRLSCAASGFTFGNYDMAWVRQAPGKRPEWVSSIDTGGDITHYADSVKGRFTISRDNAKNTLYLQMNSLRPEDTAVYWCATDEEYALGPNEFDYYGQGTLVTVSSGGGGSGGGGSGGGGSGPPCPPCPAPEFLGGPSVFLFPPKPKDTLMISRTPEVTCVVVDVSQEDPEVQFNWYVDGVEVHNAKTKPREEQFNSTYRVVSVLTVLHQDWLNGKEYKCKVSNKGLPSSIEKTISKAKGQPREPQVCTLPPSQEEMTKNQVSLSCAVKGFYPSDIAVEWESNGQPENNYKTTPPVLDSDGSFFLVSRLTVDKSRWQEGNVFSCSVMHEALHNHYTQKSLSLSLGK
B6: CIgG4E1A1(G4S)3 (Fc fusion)
chain 1: GPPCPPCPAPEFLGGPSVFLFPPKPKDTLMISRTPEVTCVVVDVSQEDPEVQFNWYVDGVEVHNAKTKPREEQFNSTYRVVSVLTVLHQDWLNGKEYKCKVSNKGLPSSIEKTISKAKGQPREPQVYTLPPCQEEMTKNQVSLWCLVKGFYPSDIAVEWESNGQPENNYKTTPPVLDSDGSFFLYSRLTVDKSRWQEGNVFSCSVMHEALHNHYTQKSLSLSLGKGGGGSGGGGSGGGGSDVQLQESGGGLVQAGGSLRLSCLASGRTFTTTSGYNMGWFRQAPGKEREFVAGIKWVSGSNRAYAESVKGRFTISRDNAKNTVYLQMNSLKPEDTAVYYCAAATGQSYVPIREYEYVYWGQGTQVTVS
chain 2: GPPCPPCPAPEFLGGPSVFLFPPKPKDTLMISRTPEVTCVVVDVSQEDPEVQFNWYVDGVEVHNAKTKPREEQFNSTYRVVSVLTVLHQDWLNGKEYKCKVSNKGLPSSIEKTISKAKGQPREPQVCTLPPSQEEMTKNQVSLSCAVKGFYPSDIAVEWESNGQPENNYKTTPPVLDSDGSFFLVSRLTVDKSRWQEGNVFSCSVMHEALHNHYTQKSLSLSLGKGGGGSGGGGSGGGGSEVQLLESGGGLVQPGGSLRLSCAASGFTFGNYDMAWVRQAPGKRPEWVSSIDTGGDITHYADSVKGRFTISRDNAKNTLYLQMNSLRPEDTAVYWCATDEEYALGPNEFDYYGQGTLVTVSS
B7: CIgG4E1A1(G4S)1 (Fc fusion)
chain 1: GPPCPPCPAPEFLGGPSVFLFPPKPKDTLMISRTPEVTCVVVDVSQEDPEVQFNWYVDGVEVHNAKTKPREEQFNSTYRVVSVLTVLHQDWLNGKEYKCKVSNKGLPSSIEKTISKAKGQPREPQVYTLPPCQEEMTKNQVSLWCLVKGFYPSDIAVEWESNGQPENNYKTTPPVLDSDGSFFLYSRLTVDKSRWQEGNVFSCSVMHEALHNHYTQKSLSLSLGKGGGGSDVQLQESGGGLVQAGGSLRLSCLASGRTFTTTSGYNMGWFRQAPGKEREFVAGIKWVSGSNRAYAESVKGRFTISRDNAKNTVYLQMNSLKPEDTAVYYCAAATGQSYVPIREYEYVYWGQGTQVTVS
chain 2: GPPCPPCPAPEFLGGPSVFLFPPKPKDTLMISRTPEVTCVVVDVSQEDPEVQFNWYVDGVEVHNAKTKPREEQFNSTYRVVSVLTVLHQDWLNGKEYKCKVSNKGLPSSIEKTISKAKGQPREPQVCTLPPSQEEMTKNQVSLSCAVKGFYPSDIAVEWESNGQPENNYKTTPPVLDSDGSFFLVSRLTVDKSRWQEGNVFSCSVMHEALHNHYTQKSLSLSLGKGGGGSEVQLLESGGGLVQPGGSLRLSCAASGFTFGNYDMAWVRQAPGKRPEWVSSIDTGGDITHYADSVKGRFTISRDNAKNTLYLQMNSLRPEDTAVYWCATDEEYALGPNEFDYYGQGTLVTVSS
B8: CIgG4E2A1(G4S)1 (Fc fusion)
chain 1: GPPCPPCPAPEFLGGPSVFLFPPKPKDTLMISRTPEVTCVVVDVSQEDPEVQFNWYVDGVEVHNAKTKPREEQFNSTYRVVSVLTVLHQDWLNGKEYKCKVSNKGLPSSIEKTISKAKGQPREPQVYTLPPCQEEMTKNQVSLWCLVKGFYPSDIAVEWESNGQPENNYKTTPPVLDSDGSFFLYSRLTVDKSRWQEGNVFSCSVMHEALHNHYTQKSLSLSLGKGGGGSDVQLQESGGGLVQAGGSLRLSCAASGRTISRYAVGWFRRPPAKEREFIGINWSGGSTTYADSAEGRFIISRDNAKNTVYLQMNSLKPEDTAVYYCAVPSVLVQGGISNPSQYDYWGQGTQVTVS
chain 2: GPPCPPCPAPEFLGGPSVFLFPPKPKDTLMISRTPEVTCVVVDVSQEDPEVQFNWYVDGVEVHNAKTKPREEQFNSTYRVVSVLTVLHQDWLNGKEYKCKVSNKGLPSSIEKTISKAKGQPREPQVCTLPPSQEEMTKNQVSLSCAVKGFYPSDIAVEWESNGQPENNYKTTPPVLDSDGSFFLVSRLTVDKSRWQEGNVFSCSVMHEALHNHYTQKSLSLSLGKGGGGSEVQLLESGGGLVQPGGSLRLSCAASGFTFGNYDMAWVRQAPGKRPEWVSSIDTGGDITHYADSVKGRFTISRDNAKNTLYLQMNSLRPEDTAVYWCATDEEYALGPNEFDYYGQGTLVTVSS

Bounds are passed on as bounds.

The target in this assay is T1, recombinant human IgE (human, UniProt P01854-1 1-428).
T1 construct: made in-house (ALK); preloaded on immobilised FcεRIα in the displacement ELISA
T1 sequence (P01854 other isoform, or with tags, fused parts or gaps): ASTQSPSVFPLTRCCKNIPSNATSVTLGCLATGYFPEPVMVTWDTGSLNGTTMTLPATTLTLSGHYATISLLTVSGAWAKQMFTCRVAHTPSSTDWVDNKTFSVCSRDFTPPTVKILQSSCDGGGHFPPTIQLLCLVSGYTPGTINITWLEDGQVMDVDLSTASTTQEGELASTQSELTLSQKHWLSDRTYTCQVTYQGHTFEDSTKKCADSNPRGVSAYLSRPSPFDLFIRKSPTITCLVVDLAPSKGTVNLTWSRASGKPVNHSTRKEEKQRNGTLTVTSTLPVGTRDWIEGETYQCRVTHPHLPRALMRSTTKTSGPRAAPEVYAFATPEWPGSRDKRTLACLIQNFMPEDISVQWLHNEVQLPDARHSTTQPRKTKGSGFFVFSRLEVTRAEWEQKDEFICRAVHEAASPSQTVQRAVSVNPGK
Put plainly: IgE-FcεRIα displacement ELISA. The essentials:
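sdAbs at pM–μM were incubated 1 h on preformed complexes of 13 ng/ml recombinant human IgE with avi-tag-biotinylated human FcεRIα captured on streptavidin.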
On to B1, for which the EC50 came to 10 nM and the Max effect is over 95%.

With B2, the EC50 came to 480 nM and the Max effect stood at 65%.

In the case of B3, the Max effect came to 25%.

In the case of B4, the Max effect was over 95%.

On to B5, for which the Max effect is over 95%.

Take B6: the EC50 worked out at 9 nM and the Max effect is over 95%.

On to B7, for which the EC50 worked out at 30 nM and the Max effect was over 95%.

Turning to B8, the EC50 came out at 1000 nM and the Max effect is 50%.
